{"source": "paper PMC7888707", "key": {"[1]": {"target": "PECAM-1–GFP (wild type, stably expressed in HL-60 cells) (human) (UniProt P16284)", "test": "FRET or BRET; FLIM measurement of FRET between the GFP and RFP tags in HL-60 cells plated on poly-L-lysine-coated coverslips at 37°C for 5 min, fixed in 4% PFA (resting, not in TEM)"}, "[2]": {"target": "PECAM-1–GFP (wild type, stably expressed in HL-60 cells) (human) (UniProt P16284)", "test": "FRET or BRET; FLIM measurement of FRET between the GFP and RFP tags in dHL-60 cells perfused (1.5 dynes/cm2) over TNF-activated HUVEC monolayers, fixed in 4% PFA in mid-TEM; read at breached junctions"}, "[3]": {"target": "PECAM-1–GFP (wild type, stably expressed in HL-60 cells) (human) (UniProt P16284)", "test": "FRET or BRET; FLIM measurement of FRET between the GFP and RFP tags in dHL-60 cells perfused (1.5 dynes/cm2) over IL-1β-activated HUVEC monolayers, fixed in 4% PFA in mid-TEM; read at breached junctions"}}, "data": [{"substance": "L-selectin–RFP (wild type, stably expressed in HL-60 cells) (from UniProt P14151 39-372) (natural protein)", "values": [{"measurement": "FRET efficiency", "setting": "[1]", "value": 0.982, "unit": "%"}, {"measurement": "FRET efficiency", "setting": "[2]", "value": 5.39, "unit": "%"}, {"measurement": "FRET efficiency", "setting": "[3]", "value": 1.21, "unit": "%"}]}]}
